T1: Cft1 (recombinant, polymerase module) (yeast, UniProt Q06632 1-1357)
T1 construct: Cft1, yeast; ordered in the cryo-EM map: residues 1 to 1357 (several loops not visible); source: overexpressed in insect cells, purified as part of the polymerase module
T1 sequence: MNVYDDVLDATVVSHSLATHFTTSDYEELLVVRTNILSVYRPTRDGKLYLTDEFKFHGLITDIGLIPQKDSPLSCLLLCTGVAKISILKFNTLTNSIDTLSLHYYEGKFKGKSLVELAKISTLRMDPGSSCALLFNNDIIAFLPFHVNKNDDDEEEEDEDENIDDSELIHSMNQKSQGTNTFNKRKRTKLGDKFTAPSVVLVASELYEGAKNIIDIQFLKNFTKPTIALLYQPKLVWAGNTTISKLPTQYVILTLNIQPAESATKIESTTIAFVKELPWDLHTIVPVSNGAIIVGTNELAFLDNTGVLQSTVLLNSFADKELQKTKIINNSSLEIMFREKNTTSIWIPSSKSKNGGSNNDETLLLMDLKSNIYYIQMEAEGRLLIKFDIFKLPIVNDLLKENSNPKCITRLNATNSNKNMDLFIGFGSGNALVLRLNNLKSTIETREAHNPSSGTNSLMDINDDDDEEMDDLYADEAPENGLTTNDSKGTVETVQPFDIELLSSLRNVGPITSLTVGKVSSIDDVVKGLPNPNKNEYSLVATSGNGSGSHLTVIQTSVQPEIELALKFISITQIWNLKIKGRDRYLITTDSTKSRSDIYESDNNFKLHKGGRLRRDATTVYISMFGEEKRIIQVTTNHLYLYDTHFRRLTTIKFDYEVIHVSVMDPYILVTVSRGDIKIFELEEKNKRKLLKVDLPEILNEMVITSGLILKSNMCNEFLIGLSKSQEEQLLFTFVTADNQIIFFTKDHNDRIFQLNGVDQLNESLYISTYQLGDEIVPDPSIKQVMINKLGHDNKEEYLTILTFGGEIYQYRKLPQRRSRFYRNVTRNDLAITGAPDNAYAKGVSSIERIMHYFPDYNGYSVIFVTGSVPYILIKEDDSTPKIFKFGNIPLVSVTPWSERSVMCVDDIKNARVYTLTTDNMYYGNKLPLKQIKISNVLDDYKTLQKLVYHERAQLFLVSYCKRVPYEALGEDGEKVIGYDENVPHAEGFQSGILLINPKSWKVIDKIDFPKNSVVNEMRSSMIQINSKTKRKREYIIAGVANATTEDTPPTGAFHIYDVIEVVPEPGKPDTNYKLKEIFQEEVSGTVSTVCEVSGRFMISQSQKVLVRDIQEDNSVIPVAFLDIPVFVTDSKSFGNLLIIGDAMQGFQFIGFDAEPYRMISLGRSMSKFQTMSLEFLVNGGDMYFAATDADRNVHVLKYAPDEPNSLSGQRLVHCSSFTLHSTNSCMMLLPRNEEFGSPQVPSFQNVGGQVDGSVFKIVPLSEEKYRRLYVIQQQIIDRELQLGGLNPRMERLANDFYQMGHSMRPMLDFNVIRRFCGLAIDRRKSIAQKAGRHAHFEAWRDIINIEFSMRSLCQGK

B1: Pfs2 (recombinant, polymerase module) (natural protein, yeast)
chain: MDGHNQNQYQNQNQIQQSQQPPLKKYVTQRRSVDVSSPYINLYYNRRHGLPNLVVEPETSYTIDIMPPNAYRGRDRVINLPSKFTHLSSNKVKHVIPAIQWTPEGRRLVVATYSGEFSLWNASSFTFETLMQAHDSAVTTMKYSHDSDWMISGDADGMIKIWQPNFSMVKEIDAAHTESIRDMAFSSNDSKFVTCSDDNILKIWNFSNGKQERVLSGHHWDVKSCDWHPEMGLIASASKDNLVKLWDPRSGNCISSILKFKHTVLKTRFQPTKGNLLMAISKDKSCRVFDIRYSMKELMCVRDETDYMTLEWHPINESMFTLACYDGSLKHFDLLQNLNEPILTIPYAHDKCITSLSYNPVGHIFATAAKDRTIRFWTRARPIDPNAYDDPTYNNKKINGWFFGINNDINAVREKSEFGAAPPPPATLEPHALPNMNGFINKKPRQEIPGIDSNIKSSTLPGLSI
notes: Pfs2, yeast; ordered in the cryo-EM map: residues 27 to 411; source: overexpressed in insect cells, purified as part of the polymerase module
B2: Fip1 (recombinant, polymerase module) (natural protein, yeast, UniProt P45976 1-327, looked up)
chain: MSSSEDEDDKFLYGSDSELALPSSKRSRDDEADAGASSNPDIVKRQKFDSPVEETPATARDDRSDEDIYSDSSDDDSDSDLEVIISLGPDPTRLDAKLLDSYSTAATSSSKDVISVATDVSNTITKTSDERLITEGEANQGVTATTVKATESDGNVPKAMTGSIDLDKEGIFDSVGITTIDPEVLKEKPWRQPGANLSDYFNYGFNEFTWMEYLHRQEKLQQDYNPRRILMGLLSLQQQGKLNSANDTDSNLGNIIDNNNNVNNANMSNLNSNMGNSMSGTPNPPAPPMHPSFPPLPMFGSFPPFPMPGMMPPMNQQPNQNQNQNSK
notes: Fip1, yeast; present in the four-subunit complex but not visible in the cryo-EM map; source: overexpressed in insect cells, purified as part of the polymerase module
B3: Pap1 (recombinant, polymerase module) (enzyme, yeast, UniProt P29468 1-568, looked up)
chain: MSSQKVFGITGPVSTVGATAAENKLNDSLIQELKKEGSFETEQETANRVQVLKILQELAQRFVYEVSKKKNMSDGMARDAGGKIFTYGSYRLGVHGPGSDIDTLVVVPKHVTREDFFTVFDSLLRERKELDEIAPVPDAFVPIIKIKFSGISIDLICARLDQPQVPLSLTLSDKNLLRNLDEKDLRALNGTRVTDEILELVPKPNVFRIALRAIKLWAQRRAVYANIFGFPGGVAWAMLVARICQLYPNACSAVILNRFFIILSEWNWPQPVILKPIEDGPLQVRVWNPKIYAQDRSHRMPVITPAYPSMCATHNITESTKKVILQEFVRGVQITNDIFSNKKSWANLFEKNDFFFRYKFYLEITAYTRGSDEQHLKWSGLVESKVRLLVMKLEVLAGIKIAHPFTKPFESSYCCPTEDDYEMIQDKYGSHKTETALNALKLVTDENKEEESIKDAPKAYLSTMYIGLDFNIENKKEKVDIHIPCTEFVNLCRSFNEDYGDHKVFNLALRFVKGYDLPDEVFDENEKRPSKKSKRKNLDARHETVKRSKSDAASGDNINGTTAAVDVN
notes: Pap1 poly(A) polymerase, yeast; source: overexpressed in insect cells, purified as part of the polymerase module

What was measured:
Conditions in all cases: both partners purified
[1] = target: B3; test: cross-linking; cross-linking mass spectrometry of the polymerase module, to determine where Pap1 and Fip1 bind
[2] = target: B2; test: as above
[3] = target: T1, Cft1 (recombinant, polymerase module); test: cryo-EM structure; recombinant four-subunit complex (Cft1, Pfs2, Yth1, Fip1) overexpressed in insect cells; overall resolution 3.5 Å
[4] = target: B1; test: as above
[5] = target: T1, Cft1 (recombinant, polymerase module); test: cross-linking; cross-linking mass spectrometry of the polymerase module, to determine where Pap1 and Fip1 bind

binding result [1] | binding result [2] | binding result [3] | binding result [4] | binding result [5] | Binder
binds | binds | binds | binds | – | Yth1 (recombinant, polymerase module) (natural protein, yeast, Yth1, yeast; ordered in the cryo-EM map: residues 1 to 94; zinc fingers 3 to 5 (residues 95 to 208) not visible; source: overexpressed in insect cells, purified as part of the polymerase module) SLIHPDTAKYPFKFEPFLRQEYSFSLDPDRPICEFYNSREGPKSCPRGPLCPKKHVLPIFQNKIVCRHWLRGLCKKNDQCEYLHEYNLRKMPECVFFSKNGYCTQSPDCQYLHIDPASKIPKCENYEMGFCPLGSSCPRRHIKKVFCQRYMTGFCPLGKDECDMEHPQFIIPDEGSKLRIKRDDEINTRKMDEEKERRLNAIINGEV
binds | – | binds | – | – | B1
binds | – | – | – | – | B2
– | – | – | – | binds | B3

From publication PMC5788269, “Architecture of eukaryotic mRNA 3′-end processing machinery” (Science (New York, N.y.), 2017)
